# Laboratory results taken from patent publication US12636342B2, “TARS derived from Akkermansia muciniphila or fragment thereof, and use thereof” (KOREA RESEARCH INSTITUTE OF BIOSCIENCE AND BIOTECHNOLOGY, priority 2020, dated 2026).
# “Also recorded” adds a separate entry of the source.
# How the values were obtained:
# BMDMs = assay: Immunoblotting of AmTARS/TLR2-induced signaling molecules in BMDMs; type: cell-based, mouse
# Description: (A and B) Analysis of key molecules that inhibit the MAPK and PI3K/AKT signaling pathways. IL-10 produced by BMDMs pre-treated with inhibitors of ERK (PD98059, […]), p38 (SB203580, […]), MSK1/2 (SB747651A, 10 μM), CREB (666-15, 1 μM), PI3K (Wortmannin, 10 μM), and AKT1/2 (AKT1/2, 10 μM) for 1 h before treatment with either PBS or AmTARS for 24 h (n=6 per group) (A). Flow cytometry analysis of M2 macrophages in BMDMs pre-treated for 1 h with the indicated kinase inhibitors, before treatment with either PBS or AmTARS for 24 h (n=3 per group) (B). (C and D) Western blot analysis of MAPK signaling molecules in lysates of BMDMs (C) or THP1 cells (D) treated for different times with 0.5 μM AmTARS. (E) Western blot analysis of lysates of BMDMs pre-treated with α-IgG (Isotype, 1 μg ml-1) or α-TLR2 (1 μg ml-1) for 1 h before treatment with PBS, AmTARS (0.5 μM), or Pam3 (0.5 μM) for 30 min. (F and G) Western blot analysis of PI3K/AKT signaling molecules in lysates of BMDMs (F) or THP1 cells (G) treated with 0.5 μM AmTARS. (H) AmTARS activates both TLR2/1- and TLR2/6-mediated signaling. Activation of AKT, ERK, and CREB was measured by western blot analysis of lysates of THP1 cells pre-treated with α-IgG, α-TLR1, α-TLR2, or α-TLR6 (1 μg ml-1) for 1 h before treatment for 30 min with PBS or AmTARS (0.5 µM). Data shown in (A and B) are representative of three independent experiments, each with similar results (mean±SEM). P-values were calculated using an unpaired two-tailed Student's t-test. Data shown in (C-H) are representative and repeated at least three times.
# Subsequently, we conducted immunoblotting assays to measure the time-dependent activation of AmTARS/TLR2-induced signaling molecules in both BMDMs and THP1 cells. AmTARS rapidly activated ERK, p38, and MSK1/2 within 15 min and, subsequently, phosphorylation of CREB at Ser133 (which is essential for IL-10 production) within 30 min in BMDMs (FIG. 31C) and THP1 cells (FIG. 31D). We then compared AmTARS-triggered TLR2 signaling with typical ligand-triggered signaling using Pam3CSK4 (the synthetic canonical TLR2/1 agonist, referred to hereafter as Pam3) in BMDMs stimulated for 30 min. […] By contrast, activation of NF-κB was greater in Pam3-treated BMDMs than in AmTARS-treated BMDMs (FIG. 31E).
# [1] = system: mouse bone marrow-derived macrophages (BMDMs); assay: ELISA of immune cytokine secretion in BMDMs under normal conditions; type: cell-based; settings: normal (non-inflammatory) conditions, 24 h
# How it was run: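 Mouse BMDMs from femur and tibia were cultured in DMEM with 10% FBS. Cells were treated with AmTARS at 0.1, 0.2 or 0.5 μM for 24 h. Cell-free supernatants were assayed by ELISA for mouse IL-6, IL-10 and TNF-α.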
# [2] = system: mouse macrophage Raw264.7; assay: Phosphorylation of signal transducers in LPS-treated Raw264.7; type: cell-based; settings: Raw264.7, LPS, 0.5 to 3 hours
# Description: To determine which signaling pathway was involved in the anti-inflammatory effect by the immune cytokine secretion regulation of […], an inflammatory environment was created through LPS treatment on mouse macrophage Raw264.7 as mouse-derived immune cells, and then changes in phosphorylation of signal transducers involved in the regulation of immune cytokine secretion according to the presence or absence of […] treatment and the elapsed time (0.5 to 3 hours) were investigated. Raw264.7 cells were cultured in DMEM (Hyclone) containing 10% FBS and antibiotics.
# BMDMs from TLR2-KO mouse = assay: IL-10 production in BMDMs from TLR2 knock-out mice; type: cell-based
# Description: The TLR2-dependent immune function of AmTARS was further corroborated using TLR2 knock-out (KO) mice. […] However, IL-10 production by […] (U1/U2) was abolished in BMDMs from TLR2-KO mice, providing further evidence that AmTARS regulates host immune cells via its unique regions in a TLR2-dependent manner (FIG. 28D).
# [3] = system: inflammatory bowel disease mouse model; assay: DSS-induced inflammatory bowel disease mouse model, intramuscular injection; type: in vivo
# Description: Further, AmTARS was intramuscularly injected into the mouse model to confirm the anti-inflammatory efficacy thereof.
# [4] = intramuscularly injected at 0.4 mg/kg or more
molecule,measurement,setting,value
"Akkermansia muciniphila-derived threonyl-tRNA synthetase (TARS) (protein, Akkermansia muciniphila TARS) MSEHKERKTLEERQQMSDLERLRHSCAHVLATAICRLWPDAQLAGGPAVDNGFYYDVELDHRISTEDFERIEEEMKKVVKENQVFQKEVISRADAMKMAESGELGALGPRSEPSRFKIDLLNDIPEDEEISLYRNGDFTDLCAGPHVGRTGNCKAFKIMSVASAFYKGDKNRPMLQRIYGTCFPNRTQLDEHLERLEEARRRDHRKLGRELGLFCIDESVGQGLILWKPKGALIRRSLQDFITEELDKLGYSQVYTPNIGKLDLYRTSGHFPYYQESQYAPIPERDAMEKLSQEGASCAELFNGLATGTIEGYMLKPMNCPHHIKIYANDAHSYRDLPVRLAEFGTVYRWEQSGELGGMTRVRGFTQDDAHIFCTPDQLAGEIRQCLGIVKTIFGTLGMTDYRVRLSMRDPESDKYVGSPENWDKAEQALREAAEWLGADYSEEAGEAAFYGPKIDFIVRDAIGREWQLGTVQVDYNLPERFDLHYTGADNKPHRPVMVHRAPFGSMERFTGLLIEHFEGKFPTWLSPEQVRVLPISDKVTDVAAAHRTALAARGVRVTVDETPDKIGAKIRNARLDRVPYMLVLGQREAEDGTVSVRHRDKGDLGAMPFEQFADLVAREIAERHISPVI","activation of CREB, AmTARS versus Pam3","BMDMs; BMDMs stimulated for 30 min, 0.5 μM",significantly greater
same,time to activation of AKT,"BMDMs; BMDMs, 0.5 μM AmTARS",≤ 15 min
same,time to activation of ERK,"BMDMs; BMDMs, 0.5 μM AmTARS",≤ 15 min
same,time to activation of MSK1/2,"BMDMs; BMDMs, 0.5 μM AmTARS",≤ 15 min
same,time to activation of PI3K,"BMDMs; BMDMs, 0.5 μM AmTARS",≤ 15 min
same,time to activation of p38,"BMDMs; BMDMs, 0.5 μM AmTARS",≤ 15 min
same,time to inhibition of GSK3β activity (phosphorylation at Ser9),"BMDMs; BMDMs, 0.5 μM AmTARS",≤ 15 min
same,time to phosphorylation of CREB at Ser133,"BMDMs; BMDMs, 0.5 μM AmTARS",≤ 30 min
same,secretion/production of IL-6,[1],not secreted; also recorded: no effect
same,secretion/production of IL-10,[1],increased in a dose-dependent manner; also recorded: significant increase; also recorded: induced production; also recorded: specific to AmTARS
same,secretion/production of TNF-α,[1],not secreted; also recorded: no effect
same,extracellular signal-regulated kinase (ERK),[2],not affected
same,phosphorylation of NF-kB,[2],distinctive differences in phosphorylation from a control from 2 h
same,phosphorylation of c-Jun N-terminal kinase (JNK),[2],affected through the regulation of phosphorylation from 30 min
same,phosphorylation of p38,[2],distinctive differences in phosphorylation from a control from 2 h
same,IL-10 production,BMDMs from TLR2-KO mouse,did not induce IL-10 production
same,damage to intestinal epithelial cells,[3]; intramuscular injection,alleviate the damage to intestinal epithelial cells
same,intestinal length of the mouse model,[3]; [4],efficacy of decreasing the weight and intestinal length
same,weight of the mouse model,[3]; [4],efficacy of decreasing the weight and intestinal length
